Results taken from PMC4074165.
Like-named read-outs stand apart in the source and are kept apart here.

What was measured:
Test in all cases: EMSA
GST-HuR [1] = target: T1, GST-HuR (UniProt Q15717 1-326)
GST-HuR [2] = target: T1, GST-HuR; remark: listed apart in the source
GST-HuR [3] = target: T1, GST-HuR; remark: listed apart in the source
GST-HuR [4] = target: T1, GST-HuR; remark: listed apart in the source

T1 sequence (Q15717 whole entry): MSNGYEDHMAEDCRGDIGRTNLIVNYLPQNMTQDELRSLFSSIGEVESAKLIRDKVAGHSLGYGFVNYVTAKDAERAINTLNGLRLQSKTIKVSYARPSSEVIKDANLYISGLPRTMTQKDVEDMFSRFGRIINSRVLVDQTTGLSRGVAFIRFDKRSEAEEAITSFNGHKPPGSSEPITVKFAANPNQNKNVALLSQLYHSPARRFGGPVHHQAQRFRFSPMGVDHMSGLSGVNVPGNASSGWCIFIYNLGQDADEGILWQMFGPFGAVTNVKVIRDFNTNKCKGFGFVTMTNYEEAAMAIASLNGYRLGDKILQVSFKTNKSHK

Binder | binding result (GST-HuR [2]) | also measured
P1-1-mut3 (hinge U to C) (ssRNA) RNA: GGGGAAAAGGGUUUAAACAGUUUGAAAUAUUCCGCCCCCACCCCCGUAAUAGUUA | – | binding result (GST-HuR [1]): binds
GGGAUAUCUGGCUGUCCUUUUUAUAAUGCAAAGUGAGAACUUUCCCUAC (ssRNA) [P1-2] | no binding | –
P1-3 (ssRNA) RNA: GGGUACUGUGUUUGAUAAAUGUUGUCCAGGUUCACUUGCCAAGAAUGUGUUGUCUAAAAUG | no binding | –
P1-1-mut1 (E1 U to C) (ssRNA) RNA: GGGGAAAAGGGUUUAAACAGCCCGAAACACCCUGUCUUCAUUUCUGUAAUAGUUA | – | binding result (GST-HuR [3]): no binding
P1-1 (ssRNA) RNA: GGGGAAAAGGGUUUAAACAGUUUGAAAUAUUCUGUCUUCAUUUCUGUAAUAGUUA | binds | –
P2-2 (ssRNA) RNA: GGGAGUAUGUAUGGAAUGUUAUGAUAGGACAUAGUAAUAGUGGUCAGAUGUGGAAA | no binding | –
P2-1 (ssRNA) RNA: GGGCCUGUUUAGUUUUCAAGGAUGGAACUCCACCCUUUACUUGGUUUUAAGU | no binding | –
P2-3 (ssRNA) RNA: GGGAAAUGGUAGGGAGACAAAUAUACAUGUGAAAUAAACUCAGUAUUUUAAUAAAGU | no binding | –
P1-1-mut2 (E2 U to C) (ssRNA) RNA: GGGGAAAAGGGUUUAAACAGUUUGAAAUAUUCUGUCUUCAUUUCUGCAACAGCCA | – | binding result (GST-HuR [4]): no binding
